Results reported in US20020049159A1 (published 2002).

Molecular target: T1, OP-1 pro domain polypeptide (human, UniProt P18075 30-292)
T1 construct: Two pro domains (39 kDa each) stand in the soluble complex with one mature dimer; The complex was isolated from CHO conditioned medium; also called pro domain peptide
Experiment: soluble complex purified from CHO conditioned medium without denaturants (Zn-IMAC, S-Sepharose, Sephacryl S-200HR gel filtration); elutes at an apparent 110 kDa
Protocol: In this example, OP-1 was expressed in mammalian (CHO, Chinese hamster ovary) cells as described in the art (see, for example, international application US90/05903 (WO 91/05802). The CHO cell conditioned media containing 0.5% FBS is initially purified using Immobilized Metal-Ion Affinity Chromatography (IMAC). The soluble OP-1 complex from conditioned media binds very selectively to the Zn-IMAC resin and a high concentration of imidazole (50 mM imidazole, pH 8.0) is required for the effective elution of the bound complex. The Zn-IMAC purified soluble OP-1 is next applied to an S-Sepharose action-exchange column equilibrated in 20 mM NaPO₄ (pH 7.0) with 50 mM NaCl. The protein then is applied to a Sephacryl S-200HR column equilibrated in TBS. Using substantially the same protocol, soluble morphogens can also be isolated from one or more body fluids, including milk, serum, cerebrospinal fluid or peritoneal fluid.

T1 sequence (P18075 30-292): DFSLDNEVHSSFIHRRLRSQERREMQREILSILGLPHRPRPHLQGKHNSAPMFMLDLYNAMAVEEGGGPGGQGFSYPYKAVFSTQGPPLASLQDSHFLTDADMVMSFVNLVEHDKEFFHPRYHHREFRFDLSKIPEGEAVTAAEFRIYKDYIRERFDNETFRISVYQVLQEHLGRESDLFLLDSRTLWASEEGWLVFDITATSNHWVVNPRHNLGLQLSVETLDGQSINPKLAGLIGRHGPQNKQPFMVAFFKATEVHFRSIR

binding result: binds
B1: mature human OP-1 dimer (recombinant, expressed in CHO cells) (ligand)
chain: STGSKQRSQNRSKTPKNQEALRMANVAENSSSDQRQACKKHELYVSFRDLGWQDWIIAPEGYAAYYCEGECAFPLNSYMNATNHAIVQTLVHFINPETVPKPCCAPTQLNAISVLYFDDSSNVILKKYRNMVVRACGCH
notes: Dimer of 35-36 kDa, glycosylated when made in CHO cells; also called hOP-1; human osteogenic protein 1
